{
  "source": "paper PMC11299584",
  "origin": "cited, not measured here",
  "target": "ANGPTL3/8 complex (Homo sapiens) (UniProt Q9Y5C1)",
  "sequence (Q9Y5C1 17-460, chain 1 of 2)": "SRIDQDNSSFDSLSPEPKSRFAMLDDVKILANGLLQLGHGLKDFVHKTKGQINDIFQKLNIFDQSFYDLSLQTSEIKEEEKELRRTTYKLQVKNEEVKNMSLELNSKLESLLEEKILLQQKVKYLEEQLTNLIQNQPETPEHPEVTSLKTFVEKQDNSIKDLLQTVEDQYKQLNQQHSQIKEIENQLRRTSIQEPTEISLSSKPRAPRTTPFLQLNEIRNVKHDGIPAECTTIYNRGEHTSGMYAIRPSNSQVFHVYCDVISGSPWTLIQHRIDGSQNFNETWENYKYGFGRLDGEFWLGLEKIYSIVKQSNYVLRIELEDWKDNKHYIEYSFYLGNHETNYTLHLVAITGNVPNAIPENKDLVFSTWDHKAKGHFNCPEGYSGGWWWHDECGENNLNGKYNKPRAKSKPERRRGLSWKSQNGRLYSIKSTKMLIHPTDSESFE",
  "sequence (Q6UXH0 22-198, chain 2 of 2, further chain)": "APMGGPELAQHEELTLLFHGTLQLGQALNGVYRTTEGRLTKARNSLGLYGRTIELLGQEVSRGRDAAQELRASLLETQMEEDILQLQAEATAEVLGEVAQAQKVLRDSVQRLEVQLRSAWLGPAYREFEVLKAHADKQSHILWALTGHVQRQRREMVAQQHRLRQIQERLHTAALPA",
  "assay": "SPR",
  "data": [
    {"substance": "APOA5 (from UniProt Q8C7G5)", "values": [
      {"measurement": "Kd", "value": 0.53, "unit": "nM"}
    ]}
  ]
}
